Reference: publication PMC4258549
Where two headings read alike, the source gives them in different places.

Legend:
Assay in all cases: AlphaScreen or HTRF
[1] = target: myc-tagged Eap (Staphylococcus aureus) (UniProt Q99QS1)
biotinylated C4b (human) [2] = target: biotinylated C4b (human)
biotinylated C4b (human) [3] = target: biotinylated C4b (human); remark: listed apart in the source

Sequence of C4b-binding protein (P04003 49-597): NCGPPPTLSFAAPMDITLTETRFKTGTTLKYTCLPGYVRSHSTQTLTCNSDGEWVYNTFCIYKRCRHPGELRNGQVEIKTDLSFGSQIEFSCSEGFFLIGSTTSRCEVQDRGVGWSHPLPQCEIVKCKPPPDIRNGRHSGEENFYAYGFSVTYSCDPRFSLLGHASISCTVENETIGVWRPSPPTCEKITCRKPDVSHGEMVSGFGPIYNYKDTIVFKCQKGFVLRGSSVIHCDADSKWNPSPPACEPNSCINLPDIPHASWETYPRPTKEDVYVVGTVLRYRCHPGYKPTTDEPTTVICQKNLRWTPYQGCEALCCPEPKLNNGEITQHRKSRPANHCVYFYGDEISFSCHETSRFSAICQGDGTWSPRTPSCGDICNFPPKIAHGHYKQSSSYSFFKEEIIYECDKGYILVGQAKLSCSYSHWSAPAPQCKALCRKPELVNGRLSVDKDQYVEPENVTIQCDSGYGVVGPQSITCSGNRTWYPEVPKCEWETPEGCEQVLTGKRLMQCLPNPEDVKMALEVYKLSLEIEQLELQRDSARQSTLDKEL
Sequence of C4b-binding protein (P20851 18-252): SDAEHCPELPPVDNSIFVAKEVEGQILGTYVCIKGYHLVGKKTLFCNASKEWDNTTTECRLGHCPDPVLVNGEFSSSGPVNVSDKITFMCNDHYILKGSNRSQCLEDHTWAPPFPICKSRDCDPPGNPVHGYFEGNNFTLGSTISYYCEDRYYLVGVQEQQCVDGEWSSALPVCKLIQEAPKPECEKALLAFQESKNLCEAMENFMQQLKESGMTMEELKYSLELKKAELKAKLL
Sequence of myc-tagged Eap (Staphylococcus aureus) (Q99QS1 31-476): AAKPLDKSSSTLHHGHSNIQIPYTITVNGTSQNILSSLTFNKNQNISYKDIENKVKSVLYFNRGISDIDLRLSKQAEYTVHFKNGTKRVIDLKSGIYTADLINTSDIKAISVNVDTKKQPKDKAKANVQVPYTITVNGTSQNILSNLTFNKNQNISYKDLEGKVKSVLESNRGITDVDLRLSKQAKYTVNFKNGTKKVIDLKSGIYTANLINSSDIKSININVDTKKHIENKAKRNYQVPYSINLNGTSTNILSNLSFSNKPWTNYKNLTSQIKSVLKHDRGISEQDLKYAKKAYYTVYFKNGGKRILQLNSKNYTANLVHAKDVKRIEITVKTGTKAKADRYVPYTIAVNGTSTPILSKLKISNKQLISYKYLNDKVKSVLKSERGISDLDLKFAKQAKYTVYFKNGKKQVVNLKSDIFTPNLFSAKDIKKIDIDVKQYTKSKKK

| Substance | Kd [1] [nM] | IC50 (biotinylated C4b (human) [2]) [nM] | IC50 (biotinylated C4b (human) [3]) [nM] |
| --- | --- | --- | --- |
| native complement component C4 (complex) | 45 | – | – |
| C4b-binding protein (from UniProt P04003 49-597; P20851 18-252) (complex) | – | 13 | 21 |
| C4c (complex) | 138 | – | – |
| C2b fragment of complement component C2, recombinant (domain or fragment) | – | – | 3500 |
